The text below walks through data of the Immune Epitope Database (IEDB).

Some targets named below: HLA-A*33:01; HLA-A*03:01; HLA-A*31:01; HLA-A*68:01; HLA-A*11:01.
Assay in all cases: IEDB peptide-MHC binding, purified MHC/competitive/radioactivity; filed as Kd, often an IC50 or EC50 that approximates it; ≥ and ≤ were set here for values at or beyond the usual limits of such assays
Where [1] appears, read: source organism: Mammarenavirus juninense.
Where [2] appears, read: source organism: Dengue virus 2 Jamaica/1409/1983.
Setting [3] is: source organism: Vaccinia virus WR.
The mark [4] stands for this setting: source organism: SARS coronavirus Tor2.
Setting [5] is: source organism: Dengue virus 4 Dominica/814669/1981.

pKd: −log10 of the molar value.

On to MTSWLDFSH, for which the pKd with HLA-A*33:01 (setting [1]) is 4.87; in the assay with HLA-A*03:01 (setting [1]), 6.26; in the assay with HLA-A*31:01 (setting [1]) it was 6.75; in the assay with HLA-A*68:01 (setting [1]), 8.47; with HLA-A*11:01 (setting [1]) it was 6.94.
For the sequence WYLWEVKKQR, the pKd in the assay with HLA-A*33:01 (setting [2]) is 7.40.
As for PAAEFRRVAH, the pKd with HLA-A*33:01 (setting [1]) is at most 4.61; with HLA-A*03:01 (setting [1]), at most 4.15; in the assay with HLA-A*31:01 (setting [1]) it was 5.03; with HLA-A*68:01 (setting [1]) it was at most 4.15; with HLA-A*11:01 (setting [1]), at most 4.16.
For KFGNSINVK, the pKd was at most 4.11 with HLA-A*33:01 (setting [3]); 5.15 with HLA-A*03:01 (setting [3]); 6.21 with HLA-A*31:01 (setting [3]); at most 4.33 with HLA-A*68:01 (setting [3]); 5.19 with HLA-A*11:01 (setting [3]).
For LSLSNLDFR, the pKd with HLA-A*33:01 (setting [3]) was 6.17; with HLA-A*03:01 (setting [3]) it was at most 4.11; with HLA-A*31:01 (setting [3]), 7.66; with HLA-A*68:01 (setting [3]), 6.52; with HLA-A*11:01 (setting [3]), 6.46.
As to QTVDFTDCR, the pKd with HLA-A*33:01 (setting [3]) is 5.24; in the assay with HLA-A*03:01 (setting [3]), at most 4.45; with HLA-A*31:01 (setting [3]) it was 6.14; with HLA-A*68:01 (setting [3]), 8.80; in the assay with HLA-A*11:01 (setting [3]) it was 6.46.
In the case of STCSAVTDR, the pKd with HLA-A*33:01 (setting [3]) was 5.86; in the assay with HLA-A*03:01 (setting [3]), at most 4.51; in the assay with HLA-A*31:01 (setting [3]), 6.92; with HLA-A*68:01 (setting [3]), 7.26; with HLA-A*11:01 (setting [3]), 7.51.
The corresponding values for DADPPIPYSR are 5.57, at most 4.15, 5.00, 6.29 and 4.79.
Taken in the same sequence, the figures for EIKQGRVNK were 5.49, 6.19, at most 4.29, 7.05 and 6.29.
Consider EIIFLKLFKK, for which the pKd with HLA-A*33:01 (setting [3]) is 6.89; in the assay with HLA-A*03:01 (setting [3]), 7.05; with HLA-A*31:01 (setting [3]) it was 7.70; with HLA-A*68:01 (setting [3]), 8.27; in the assay with HLA-A*11:01 (setting [3]), 7.75.
Take LWRTLGRNKR: in the assay with HLA-A*31:01 (source organism: Dengue virus 3 Sri Lanka/1266/2000), the pKd was 6.15.
In the case of CLEWLRAKRK, the pKd with HLA-A*33:01 (setting [3]) was 4.95; with HLA-A*03:01 (setting [3]) it was 6.00; with HLA-A*31:01 (setting [3]), 5.57; with HLA-A*68:01 (setting [3]), at most 4.24; with HLA-A*11:01 (setting [3]), 4.71.
The corresponding values for SSKGNCAIK are 4.75, 5.17, 5.67, 5.46 and 5.67.
As for TVCYVLTGR, the pKd was 8.80 with HLA-A*33:01 (setting [2]), 7.99 in the assay with HLA-A*31:01 (setting [2]) and 7.82 in the assay with HLA-A*68:01 (setting [2]).
Regarding KTNDINVRRR, the pKd with HLA-A*33:01 (setting [3]) was 5.26; with HLA-A*03:01 (setting [3]) it was 7.19; with HLA-A*31:01 (setting [3]), 7.75; in the assay with HLA-A*68:01 (setting [3]), 6.07; with HLA-A*11:01 (setting [3]), 5.84.
Turning to TVWEVQGYK, the pKd with HLA-A*33:01 (setting [4]) is 6.89; in the assay with HLA-A*03:01 (setting [4]), 8.54; with HLA-A*31:01 (setting [4]) it was 7.32; with HLA-A*68:01 (setting [4]), 9.04; in the assay with HLA-A*11:01 (setting [4]), 9.12.
Consider KSINKVYGRY, for which the pKd in the assay with HLA-A*33:01 (setting [3]) is at most 4.15; with HLA-A*03:01 (setting [3]) it was 5.58; with HLA-A*31:01 (setting [3]), 7.19; with HLA-A*68:01 (setting [3]), at most 4.47; in the assay with HLA-A*11:01 (setting [3]) it was 5.92.
Regarding GYVLGVFLR, the pKd was 5.74 with HLA-A*33:01 (setting [5]) and 7.27 in the assay with HLA-A*31:01 (setting [5]).
Regarding IQRFSSLRR, the pKd was at most 4.52 with HLA-A*33:01 (setting [3]); 6.90 with HLA-A*03:01 (setting [3]); 7.25 with HLA-A*31:01 (setting [3]); 4.92 in the assay with HLA-A*68:01 (setting [3]); 6.00 with HLA-A*11:01 (setting [3]).
On to YIVHSYLKNY, for which the pKd was at most 4.15 in the assay with HLA-A*33:01 (setting [3]); at most 4.15 with HLA-A*03:01 (setting [3]); at most 4.15 with HLA-A*31:01 (setting [3]); at most 4.15 with HLA-A*68:01 (setting [3]); at most 4.16 with HLA-A*11:01 (setting [3]).

As usually defined, the pKd is the negative decadic logarithm of the Kd, by convention in mol/L.
